According to paper PMC3413214, “Structural and biochemical characterization of a trapped coenzyme A adduct of Caenorhabditis elegans glucosamine-6-phosphate N-acetyltransferase 1” (Acta Crystallographica Section D: Biological Crystallography, 2012):

Substrate: CC(=O)SCCNC(=O)CCNC(=O)[C@H](O)C(C)(C)COP(=O)(O)OP(=O)(O)OC[C@H]1O[C@@H](n2cnc3c(N)ncnc32)[C@H](O)[C@@H]1OP(=O)(O)O
Assay: purified protein
Assay type: biochemical, Caenorhabditis elegans
Details: GlcN-6P constant, 25 mM Tris-HCl pH 7.5, 250 mM NaCl, 2 mM EDTA, 5% glycerol, 293 K, 20.0 °C

Protein	Km (3 nM enzyme) [µM]	kcat (3 nM enzyme) [s⁻¹]	kcat/Km (3 nM enzyme) [M⁻¹ s⁻¹]	Km (10 nM enzyme) [µM]	kcat (10 nM enzyme) [s⁻¹]	kcat/Km (10 nM enzyme) [M⁻¹ s⁻¹]
CeGNA1 (Caenorhabditis elegans) (protein, full-length, 165 residues; GST fusion from pGEX-6P-1 in E. coli BL21(DE3) pLysS, GST cut with PreScission protease; homodimer; 18 876 Da by MALDI) MSHIFDASVLAPHIPSNLPDNFKVRPLAKDDFSKGYVDLLSQLTSVGNLDQEAFEKRFEAMRTSVPNYHIVVIEDSNSQKVVASASLVVEMKFIHGAGSRGRVEDVVVDTEMRRQKLGAVLLKTLVSLGKSLGVYKISLECVPELLPFYSQFGFQDDCNFMTQRF	192 ± 16	252	1.3e+06	–	–	–
CeGNA1 (Caenorhabditis elegans; C141S) (protein, full-length, 165 residues; GST fusion from pGEX-6P-1 in E. coli BL21(DE3) pLysS, GST cut with PreScission protease; homodimer; 18 876 Da by MALDI) MSHIFDASVLAPHIPSNLPDNFKVRPLAKDDFSKGYVDLLSQLTSVGNLDQEAFEKRFEAMRTSVPNYHIVVIEDSNSQKVVASASLVVEMKFIHGAGSRGRVEDVVVDTEMRRQKLGAVLLKTLVSLGKSLGVYKISLESVPELLPFYSQFGFQDDCNFMTQRF	–	–	–	261 ± 33	48	200000
